The source of these data is article PMC2657470 (Biochemical and biophysical research communications, 2009).

The IC50 is the concentration that gives 50% inhibition. One may read the Km as the substrate concentration at which the rate is half of its maximum. One may read the Vmax as the rate approached at saturating substrate. Usually kcat stands for the number of substrate molecules converted per active site and unit of time at saturation. Broadly, the kcat/Km is the turnover number divided by the Michaelis constant.

One series has as its system Phos15739D28A. Nature of the series: Enzymatic activity of variant Phos15739D28A with p-NPP and FPP. Type of series: biochemical, D. melanogaster. The settings on record: same reaction conditions as positive control Phos15739; data not shown.
Series [1] relates to N-terminal domain of hsEH. The note with it: FPP as substrate of N-terminal domain of hsEH; ref [8]; cited from earlier work.
A further series addresses Phos2680 (Drosophila melanogaster, UniProt Q9W4W5). As to the kind of experiment: In vitro inhibition of Phos2680, p-NPP as substrate.
For series [2], the target named is T1, Phos15739 (Drosophila melanogaster, UniProt Q9VYT0). As to the kind of experiment: In vitro inhibition of Phos15739, p-NPP as substrate. The note with it: for inhibitor quality for Phos15739 (in words): p-NPP as substrate.
Series [3] concerns the target hsEH N-terminal phosphatase. The note with it: cited from earlier work.
In series [4] the target is T1, Phos15739. Type of series: biochemical, D. melanogaster. The settings on record: for substrate quality for Phos15739 (in words): isoprenoid mono- and pyrophosphate substrates.
Substrate in series [5]: CC(C)=CCC/C(C)=C/CC/C(C)=C/CO[P@@](=O)(O)OP(=O)(O)O
Nature of the series: purified protein, by the assay type. The note with it: other: substrate of Phos15739; IPP, GPP, FPP values are apparent kinetics.

Substrate in series [6]: C=C(C)CCOP(=O)(O)O
Nature of the series: purified protein, by the assay type.

Substrate in series [7]: CC(C)=CCC/C(C)=C/COP(=O)(O)O
Nature of the series: purified protein, by the assay type. The class given is biochemical, D. melanogaster. The settings on record: other: substrate of Phos15739; IPP, GPP, FPP values are apparent kinetics.

Substrate in series [8]: C=C(C)CCO[P@@](=O)(O)OP(=O)(O)O
As to the kind of experiment: purified protein, by the assay type. The settings on record: other: substrate of Phos15739; IPP, GPP, FPP values are apparent kinetics. Type of series: biochemical, D. melanogaster.

Substrate in series [9]: CC(C)=CCC/C(C)=C/CC/C(C)=C/COP(=O)(O)O
As to the kind of experiment: purified protein, by the assay type. The class given is biochemical, D. melanogaster. The settings on record: other: substrate of Phos15739; IPP, GPP, FPP values are apparent kinetics.

Substrate in series [10]: O=[N+]([O-])c1ccc(OP(=O)(O)O)cc1
As to the kind of experiment: p-NPP phosphatase activity of Phos15739. The class given is biochemical, D. melanogaster. The note with it: other: p-NPP as substrate of Phos15739, pH 6.0, 2 mM Mg2+.

Substrate in series [11]: O=[N+]([O-])c1ccc(OP(=O)(O)O)cc1
Nature of the series: p-NPP phosphatase activity of Phos2680. The class given is biochemical, D. melanogaster. The settings on record: other: p-NPP as substrate of Phos2680, pH 6.0, 2 mM Mg2+.

[12] abbreviates: substrate of Phos15739, IPP, GPP, FPP values are apparent kinetics.
Where [13] appears, read: other: substrate of Phos15739, IPP, GPP, FPP values are apparent kinetics.

Where two headings read alike, the source gives them in different places. A value given as a limit tells only on which side of the number the result lay.

Regarding `CC(C)=CCC/C(C)=C/CC/C(C)=C/COP(=O)(O)OP(=O)(O)O` [FPP, farnesyl pyrophosphate], in the series on Phos15739D28A, the “enzymatic activity of Phos15739D28A with substrate” value was “No activity was detected”. In [1], the turnover number is 0.25 ± 0.07 s⁻¹.

For `CC(C)=CCC/C(C)=C/CC/C(C)=C/CSCC(=O)O` [S-Farnesyl-thioacetic acid], the IC50 on Phos2680 is 5.1 ± 1.4 µM; at Phos15739 [2], more than 100 µM. Moreover, the “inhibitor quality for Phos15739 (in words)” value against Phos15739 [2] was “poor inhibitors”.

Consider `C[C@H](CCC(=O)NCCS(=O)(=O)O)[C@H]1CC[C@H]2[C@@H]3CC[C@@H]4C[C@H](OS(=O)(=O)O)CC[C@]4(C)[C@H]3CC[C@]12C` [Taurolithocholic acid 3-sulfate, taurolithocholic acid 3-sulfate], for which the figures for the IC50 (in [3] (ref [12]); against Phos2680; against Phos15739 [2]) were 5 µM, more than 100 µM and more than 100 µM, respectively. Also, the “inhibitor quality for Phos15739 (in words)” value against Phos15739 [2] was “poor inhibitors”.

As for `O=[N+]([O-])c1ccc(OP(=O)(O)O)cc1` [p-NPP, para-nitrophenyl phosphate], the “enzymatic activity of Phos15739D28A with substrate” value in the series on Phos15739D28A is given as “No activity was detected”.

For the molecule `CC(C)=CCC/C(C)=C/CC/C(C)=C/CC/C(C)=C/COP(=O)(O)OP(=O)(O)O` [GGPP, Geranylgeranyl pyrophosphate], the “substrate quality for Phos15739 (in words)” value (from here on “substrate quality”) at Phos15739 [4] was “not good substrates”.

As for `CC(=O)N[C@@H](CSC/C=C(\C)CCC=C(C)C)C(=O)O` [N-acetyl-S-geranyl-L-cysteine], the IC50 at Phos2680 was more than 100 µM; against Phos15739 [2], 6.3 ± 1.7 µM.

With `CC(=O)N[C@@H](CSC/C=C(\C)CC/C=C(\C)CCC=C(C)C)C(=O)O` [N-acetyl-S-farnesyl-L-cysteine], the IC50 in series [3] (ref [8]) is 0.84 µM; at Phos2680, more than 100 µM; against Phos15739 [2] it was 28 ± 6.8 µM.

With `CC(C)=CCC/C(C)=C/CC/C(C)=C/CC/C(C)=C/COP(=O)(O)O` [GGMP], at Phos15739 [4], the “substrate quality” value is listed as “not good substrates”.

Consider `CC(C)=CCC/C(C)=C/COP(=O)(O)OP(=O)(O)O` [GPP], for which the “substrate quality” value at Phos15739 [4] is “weak substrates”. In addition, at Phos15739 [4] (setting [12]), the “Kcat (s^−1±S.E.)” value worked out at 0.78 ± 0.09 s⁻¹ and the “Vmax (μmol.min^−1mg^−1±S.E.)” value stood at 1.4 ± 1.5 µmol/min/mg.

For the molecule `CC(=O)N[C@@H](CSC/C=C(\C)CC/C=C(\C)CC/C=C(\C)CCC=C(C)C)C(=O)O` [N-acetyl-S-geranylgeranyl-L-cysteine], the half-inhibitory concentration (IC50) at Phos2680 worked out at 14 ± 1.9 µM; at Phos15739 [2], 4.4 ± 2 µM.

As for `C=C(C)CCOP(=O)(O)OP(=O)(O)O` [IPP], the “substrate quality” value on Phos15739 [4] is given as “weak substrates”.

B1: Phos15739 (Drosophila melanogaster) (protein)
chain: MAKPQHILQLSQEQRSSVVDSFDRVVSDIDGVLWTFEQSIPRAADGYAALEQMGKHLTFLTNNSVRTSEQCVKLFAKIGMQVHPEQIWHPAKSIVSYLQSIKFEGLIYIIASQSFKTVLREAGFQLLDGPNEFIEESYASLAEHIFGKEPVRAVIIDVDFNLTSPKILRAHLYLRHPECMLIEGATDRLLPVAKEVNIVGPGAFASILVEASGKQPITLGKPGRELGDLLVEHYQIVQPSRVLMIGDMLAQDVSFGRQCGFQTLLVLSGGCSKEELLAETDPQRIPDYYADSVADVAQMLGEAPKSRV
B1: the Michaelis-Menten constant (Km) in series [5] was found to be 48 ± 13 µM; in series [6] (setting [13]) it was 84 ± 27 µM; in [7], 81 ± 6.7 µM; in series [8], 430 ± 150 µM; in [9], 160 ± 20 µM; in series [10], 240 µM. In addition, the Vmax in series [5] turned out to be 18 ± 1.8 µmol/min/mg; in series [6] (setting [13]), 18 ± 2.7 µmol/min/mg; in series [7], 250 ± 9.3 µmol/min/mg; in series [8] it was 2.1 ± 0.39 µmol/min/mg; in series [9], 85 ± 4.2 µmol/min/mg; in [10], 6.1 µmol/min/mg. For the same molecule, the kcat in [5] worked out at 10 ± 1.04 s⁻¹; in [6] (setting [13]), 10 ± 1.5 s⁻¹; in series [7] it was 140 ± 5.3 s⁻¹; in series [8], 1.2 ± 0.22 s⁻¹; in series [9] it was 49 ± 2.4 s⁻¹. For the same molecule, the specificity constant (kcat/Km) in series [5] is 2.1 X 10^5 M^−1 s^−1; in series [6] (setting [13]), 120000 M⁻¹ s⁻¹; in [7], 1.8e+06 M⁻¹ s⁻¹; in [8], 2700 M⁻¹ s⁻¹; in series [9] it was 310000 M⁻¹ s⁻¹.

B2: Phos2680 (Drosophila melanogaster) (protein)
chain: MSPPRHILKLSLEEQRQFIDSFDLVISDCDGVVWLLVGWIPNTGAAVNALKAAGKQIKFVSNNSFRSEEDYMEKFRHIGAKNVQEDDIVHPVKTIVRYLKKHKPGERVYSLMSLEANETLRKHNIEFESLQVKEHLTAASLVDHLAIEKPVGAVLFDIHLDLSYVELAKAIRHLQENDDCQLIAGGSDVIMPLAENLNVAGFFDFLEHVKRYTQREATFLGKPSPILGEMFGEMFEIRDCKRCIFIGDTLVQDVQFGKACGFQSLLVLSGCLTKEDMLNAPVEAQPDYYADSLADFTQLLENIQK
In the case of B2, in series [6] (other: substrate of Phos2680), the Michaelis-Menten constant (Km) turned out to be 35 µM and the Vmax was found to be 59 µmol/min/mg. In [11], the Michaelis-Menten constant (Km) was 640 µM and the maximum rate (Vmax) amounted to 36 µmol/min/mg.
